According to patent US20110112279A1:

Biological target: receptor for STOP-1 on the cell surface (unidentified; HeLa, HT1080, HUVEC and MDA-MB-435 cells) (human)
Experiment: flow cytometry on MDA-MB-435 cells, flag-tagged STOP-1 alone, anti-flag M2-FITC detection; detection antibody alone gave approximately 7.99

geometric mean value of the signal intensity: 13.2
Substance: flag-tagged full length human STOP-1 (from UniProt Q96CG8 31-243) (ligand)
